T1: human CEA expressed on tumor cells (LS-174T, A549-huCEA, MKN-45, MC38-huCEA, HPAFII, BxPC-3, ASPC-1) (human, UniProt P06731 35-685)
T1 construct: whole, on cells; also called Carcinoembryonic antigen; CEACAM5
T1 sequence (looked up): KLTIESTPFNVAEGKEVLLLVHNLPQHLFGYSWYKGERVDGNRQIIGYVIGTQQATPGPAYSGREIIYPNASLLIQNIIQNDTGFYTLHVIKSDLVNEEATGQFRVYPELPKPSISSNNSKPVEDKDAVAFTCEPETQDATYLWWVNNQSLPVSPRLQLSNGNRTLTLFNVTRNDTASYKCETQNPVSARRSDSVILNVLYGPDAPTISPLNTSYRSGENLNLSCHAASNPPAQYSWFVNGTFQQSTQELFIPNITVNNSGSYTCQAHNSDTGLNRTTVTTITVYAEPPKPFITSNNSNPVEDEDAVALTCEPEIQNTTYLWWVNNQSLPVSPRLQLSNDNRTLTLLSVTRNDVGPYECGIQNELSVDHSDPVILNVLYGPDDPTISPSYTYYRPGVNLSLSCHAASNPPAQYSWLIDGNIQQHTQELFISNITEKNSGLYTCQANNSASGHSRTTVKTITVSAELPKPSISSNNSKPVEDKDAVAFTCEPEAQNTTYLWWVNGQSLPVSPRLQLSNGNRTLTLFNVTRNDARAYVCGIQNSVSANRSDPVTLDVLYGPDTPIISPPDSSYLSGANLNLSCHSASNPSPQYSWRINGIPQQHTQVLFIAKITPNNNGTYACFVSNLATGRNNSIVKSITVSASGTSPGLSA

B1: “1+1 IgG scFab, one armed inverted” (anti-MCSP/anti-huCD3) (bispecific antibody)
chain 1: DIVLTQSPSSLSASLGDRVTISCSASQGIRNYLNWYQQRPDGTVKLLIYYTSSLHSGVPSRFSGSGSGTDYSLTISNLEPEDIATYYCQQYSKLPWTFGGGTKLEIKRTVAAPSVFIFPPSDEQLKSGTASVVCLLNNFYPREAKVQWKVDNALQSGNSQESVTEQDSKDSTYSLSSTLTLSKADYEKHKVYACEVTHQGLSSPVTKSFNRGECSGGGSGGGSEGGGSEGGGSEGGGSEGGGSGGGSGEVQLQESGPGLVKPSQSLSLTCSVTGYSITSGYYWNWIRQFPGNKLEWMGYITYDGSNNYNPSLKNRISITRDTSKNQFFLKLNSVTTEDTATYYCADFDYWGQGTTLTVSSASTKGPSVFPLAPSSKSTSGGTAALGCLVKDYFPEPVTVSWNSGALTSGVHTFPAVLQSSGLYSLSSVVTVPSSSLGTQTYICNVNHKPSNTKVDKKVEPKSCDGGGGSGGGGSGAQDKTHTCPPCPAPEAAGGPSVFLFPPKPKDTLMISRTPEVTCVVVDVSHEDPEVKFNWYVDGVEVHNAKTKPREEQYNSTYRVVSVLTVLHQDWLNGKEYKCKVSNKALPAPIEKTISKAKGQPREPQVCTLPPSRDELTKNQVSLSCAVKGFYPSDIAVEWESNGQPENNYKTTPPVLDSDGSFFLVSKLTVDKSRWQQGNVFSCSVMHEALHNHYTQKSLSLSPGK
chain 2: not shown
chain 3: not shown
B2: “2+1 IgG scFab, LALA” (anti-MCSP/anti-huCD3) (bispecific antibody)
chain 1: DIVLTQSPSSLSASLGDRVTISCSASQGIRNYLNWYQQRPDGTVKLLIYYTSSLHSGVPSRFSGSGSGTDYSLTISNLEPEDIATYYCQQYSKLPWTFGGGTKLEIKRTVAAPSVFIFPPSDEQLKSGTASVVCLLNNFYPREAKVQWKVDNALQSGNSQESVTEQDSKDSTYSLSSTLTLSKADYEKHKVYACEVTHQGLSSPVTKSFNRGEC
chain 2: not shown
chain 3: EVQLQESGPGLVKPSQSLSLTCSVTGYSITSGYYWNWIRQFPGNKLEWMGYITYDGSNNYNPSLKNRISITRDTSKNQFFLKLNSVTTEDTATYYCADFDYWGQGTTLTVSSASTKGPSVFPLAPSSKSTSGGTAALGCLVKDYFPEPVTVSWNSGALTSGVHTFPAVLQSSGLYSLSSVVTVPSSSLGTQTYICNVNHKPSNTKVDKKVEPKSCDKTHTCPPCPAPEAAGGPSVFLFPPKPKDTLMISRTPEVTCVVVDVSHEDPEVKFNWYVDGVEVHNAKTKPREEQYNSTYRVVSVLTVLHQDWLNGKEYKCKVSNKALPAPIEKTISKAKGQPREPQVCTLPPSRDELTKNQVSLSCAVKGFYPSDIAVEWESNGQPENNYKTTPPVLDSDGSFFLVSKLTVDKSRWQQGNVFSCSVMHEALHNHYTQKSLSLSPGK
notes: Fc with L234A L235A; also called Fc-LALA; copies: 2 + 1 + 1
B3: 2 + 1 IgG Crossfab, inverted; CL/CH1 exchange (CH1A1A/V9) (anti-CEA/anti-huCD3) (bispecific antibody)
chain 1: QVQLVQSGAEVKKPGASVKVSCKASGYTFTEFGMNWVRQAPGQGLEWMGWINTKTGEATYVEEFKGRVTFTTDTSTSTAYMELRSLRSDDTAVYYCARWDFAYYVEAMDYWGQGTTVTVSSASTKGPSVFPLAPSSKSTSGGTAALGCLVKDYFPEPVTVSWNSGALTSGVHTFPAVLQSSGLYSLSSVVTVPSSSLGTQTYICNVNHKPSNTKVDKKVEPKSCDKTHTCPPCPAPEAAGGPSVFLFPPKPKDTLMISRTPEVTCVVVDVSHEDPEVKFNWYVDGVEVHNAKTKPREEQYNSTYRVVSVLTVLHQDWLNGKEYKCKVSNKALGAPIEKTISKAKGQPREPQVCTLPPSRDELTKNQVSLSCAVKGFYPSDIAVEWESNGQPENNYKTTPPVLDSDGSFFLVSKLTVDKSRWQQGNVFSCSVMHEALHNHYTQKSLSLSPGK
chain 2: DIQMTQSPSSLSASVGDRVTITCKASAAVGTYVAWYQQKPGKAPKLLIYSASYRKRGVPSRFSGSGSGTDFTLTISSLQPEDFATYYCHQYYTYPLFTFGQGTKLEIKRTVAAPSVFIFPPSDEQLKSGTASVVCLLNNFYPREAKVQWKVDNALQSGNSQESVTEQDSKDSTYSLSSTLTLSKADYEKHKVYACEVTHQGLSSPVTKSFNRGEC
chain 3: DIQMTQSPSSLSASVGDRVTITCRASQDIRNYLNWYQQKPGKAPKLLIYYTSRLESGVPSRFSGSGSGTDYTLTISSLQPEDFATYYCQQGNTLPWTFGQGTKVEIKSSASTKGPSVFPLAPSSKSTSGGTAALGCLVKDYFPEPVTVSWNSGALTSGVHTFPAVLQSSGLYSLSSVVTVPSSSLGTQTYICNVNHKPSNTKVDKKVEPKSC
chain 4: not shown
notes: also called CL/CH1-exchange construct
B4: 2 + 1 IgG Crossfab, inverted; VL/VH exchange (CH1A1A/V9) (anti-CEA/anti-huCD3) (bispecific antibody)
chain 1: EVQLVESGGGLVQPGGSLRLSCAASGYSFTGYTMNWVRQAPGKGLEWVALINPYKGVSTYNQKFKDRFTISVDKSKNTAYLQMNSLRAEDTAVYYCARSGYYGDSDWYFDVWGQGTLVTVSSASVAAPSVFIFPPSDEQLKSGTASVVCLLNNFYPREAKVQWKVDNALQSGNSQESVTEQDSKDSTYSLSSTLTLSKADYEKHKVYACEVTHQGLSSPVTKSFNRGEC
chain 2: not shown
chain 3: B3 chain 1
chain 4: B3 chain 2
notes: also called VL/VH-exchange construct

Assays:
[1] = target: T2, human MCSP expressed on tumor cells (Colo-38, WM266-4, A375, MV-3, HCT-116) (human, UniProt Q6UVK1 30-2322); assay: flow cytometry on Colo-38 cells, 50 nM
T2 construct: whole, on cells; also called huMCSP; MCSP on cells
Procedure: (§1) Binding of the different bispecific constructs to CD3 on Jurkat cells (ATCC #TIB-152), and the respective tumor antigen on target cells, was determined by FACS. Briefly, cells were harvested, counted and checked for viability. 0.15-0.2 million cells per well (in PBS containing 0.1% BSA; 90 μl) were plated in a round-bottom 96-well plate and incubated with the indicated concentration of the bispecific constructs and corresponding IgG controls (10 μl) for 30 min at 4° C. […] After the incubation, cells were centrifuged (5 min, 350×g), washed with 150 μl PBS containing 0.1% BSA, resuspended and incubated for further 30 min at 4° C. with 12 μl/well of a FITC- or PE-conjugated secondary antibody. Bound constructs were detected using a FACSCantoII (Software FACS Diva). The “(scFv)₂” molecule was detected using a FITC-conjugated anti-His antibody (Lucerna, #RHIS-45F-Z). For all other molecules, a FITC- or PE-conjugated AffiniPure F(ab′)2 Fragment goat anti-human IgG Fcγ Fragment Specific (Jackson Immuno Research Lab #109-096-098/working solution 1:20, or #109-116-170/working solution 1:80, respectively) was used. Cells were washed by addition of 120 μl/well PBS containing 0.1% BSA and centrifugation at 350×g for 5 min. A second washing step was performed with 150 μl/well PBS containing 0.1% BSA. […] EC50 values were calculated using the GraphPad Prism software.
(§2) In a first experiment, different bispecific constructs targeting human MCSP and human CD3 were analyzed by flow cytometry for binding to human CD3 expressed on Jurkat, human T cell leukaemia cells, or to human MCSP on Colo-38 human melanoma cells.

[2] = target: T3, human CD3 expressed on Jurkat cells (human, UniProt P07766 23-207); assay: flow cytometry on Jurkat cells, 50 nM
T3 construct: CD3 complex on Jurkat T cells; also called CD3 on Jurkat cells; huCD3
Procedure: as §1, §2

[3] = target: T4, HuFcγRIIIa-V158-K6H6 (human, UniProt P08637 17-208, limits assumed); assay: SPR Biacore T100, 25 C; receptor captured via anti-Penta His, construct as analyte; kinetic, one concentration (1000 nM)
T4 construct: His-tagged recombinant receptor captured by anti-Penta His antibody; also called human FcγRIIIa-V158; human FcγRIIIa
Procedure: For analyzing interaction of different Fc-variants with human FcγRIIIa-V158 and murine FcγRIV direct coupling of around 6,500 resonance units (RU) of the anti-Penta His antibody (Qiagen) is performed on a CM5 chip at pH 5.0 using the standard amine coupling kit (Biacore, Freiburg/Germany). HuFcγRIIIa-V158-K6H6 and muFcγRIV-aviHis-biotin are captured for 60 s at 4 and 10 nM respectively.
Constructs with different Fc-mutations are passed through the flow cells for 120 s at a concentration of 1000 nM with a flow rate of 30 μl/min. The dissociation is monitored for 220 s. Bulk refractive index differences are corrected for by subtracting the response obtained in a reference flow cell. […] Affinity for human FcγRIIIa-V158 and murine FcγRIV was determined for wild-type Fc using a concentration range from 500-4000 nM.

[4] = target: T1, human CEA expressed on tumor cells …; assay: flow cytometry on LS-174T cells
Procedure: Binding of the different bispecific constructs to CD3 on Jurkat cells (ATCC #TIB-152), and the respective tumor antigen on target cells, was determined by FACS. Briefly, cells were harvested, counted and checked for viability. 0.15-0.2 million cells per well (in PBS containing 0.1% BSA; 90 μl) were plated in a round-bottom 96-well plate and incubated with the indicated concentration of the bispecific constructs and corresponding IgG controls (10 μl) for 30 min at 4° C. […] After the incubation, cells were centrifuged (5 min, 350×g), washed with 150 μl PBS containing 0.1% BSA, resuspended and incubated for further 30 min at 4° C. with 12 μl/well of a FITC- or PE-conjugated secondary antibody. Bound constructs were detected using a FACSCantoII (Software FACS Diva). The “(scFv)₂” molecule was detected using a FITC-conjugated anti-His antibody (Lucerna, #RHIS-45F-Z). […] EC50 values were calculated using the GraphPad Prism software.
(§3) As a control, the equivalent maximum concentration of the corresponding IgGs and the background staining due to the labeled 2ndary antibody (goat anti-human FITC-conjugated AffiniPure F(ab′)2 Fragment, FcγFragment-specific, Jackson Immuno Research Lab #109-096-098) were assessed as well.

[5] = target: T3, human CD3 expressed on Jurkat cells; assay: flow cytometry on Jurkat cells
Procedure: as §1, §3

[6] = target: T1, human CEA expressed on tumor cells …; assay: cell-based or functional assay

T3 sequence (P07766 23-207 limits assumed): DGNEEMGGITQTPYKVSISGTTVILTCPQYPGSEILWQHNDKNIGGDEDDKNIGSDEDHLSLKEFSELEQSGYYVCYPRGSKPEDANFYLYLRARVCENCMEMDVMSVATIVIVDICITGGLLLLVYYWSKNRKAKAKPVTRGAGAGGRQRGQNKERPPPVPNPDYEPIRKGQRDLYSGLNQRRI
T2 sequence (Q6UVK1 30-2322): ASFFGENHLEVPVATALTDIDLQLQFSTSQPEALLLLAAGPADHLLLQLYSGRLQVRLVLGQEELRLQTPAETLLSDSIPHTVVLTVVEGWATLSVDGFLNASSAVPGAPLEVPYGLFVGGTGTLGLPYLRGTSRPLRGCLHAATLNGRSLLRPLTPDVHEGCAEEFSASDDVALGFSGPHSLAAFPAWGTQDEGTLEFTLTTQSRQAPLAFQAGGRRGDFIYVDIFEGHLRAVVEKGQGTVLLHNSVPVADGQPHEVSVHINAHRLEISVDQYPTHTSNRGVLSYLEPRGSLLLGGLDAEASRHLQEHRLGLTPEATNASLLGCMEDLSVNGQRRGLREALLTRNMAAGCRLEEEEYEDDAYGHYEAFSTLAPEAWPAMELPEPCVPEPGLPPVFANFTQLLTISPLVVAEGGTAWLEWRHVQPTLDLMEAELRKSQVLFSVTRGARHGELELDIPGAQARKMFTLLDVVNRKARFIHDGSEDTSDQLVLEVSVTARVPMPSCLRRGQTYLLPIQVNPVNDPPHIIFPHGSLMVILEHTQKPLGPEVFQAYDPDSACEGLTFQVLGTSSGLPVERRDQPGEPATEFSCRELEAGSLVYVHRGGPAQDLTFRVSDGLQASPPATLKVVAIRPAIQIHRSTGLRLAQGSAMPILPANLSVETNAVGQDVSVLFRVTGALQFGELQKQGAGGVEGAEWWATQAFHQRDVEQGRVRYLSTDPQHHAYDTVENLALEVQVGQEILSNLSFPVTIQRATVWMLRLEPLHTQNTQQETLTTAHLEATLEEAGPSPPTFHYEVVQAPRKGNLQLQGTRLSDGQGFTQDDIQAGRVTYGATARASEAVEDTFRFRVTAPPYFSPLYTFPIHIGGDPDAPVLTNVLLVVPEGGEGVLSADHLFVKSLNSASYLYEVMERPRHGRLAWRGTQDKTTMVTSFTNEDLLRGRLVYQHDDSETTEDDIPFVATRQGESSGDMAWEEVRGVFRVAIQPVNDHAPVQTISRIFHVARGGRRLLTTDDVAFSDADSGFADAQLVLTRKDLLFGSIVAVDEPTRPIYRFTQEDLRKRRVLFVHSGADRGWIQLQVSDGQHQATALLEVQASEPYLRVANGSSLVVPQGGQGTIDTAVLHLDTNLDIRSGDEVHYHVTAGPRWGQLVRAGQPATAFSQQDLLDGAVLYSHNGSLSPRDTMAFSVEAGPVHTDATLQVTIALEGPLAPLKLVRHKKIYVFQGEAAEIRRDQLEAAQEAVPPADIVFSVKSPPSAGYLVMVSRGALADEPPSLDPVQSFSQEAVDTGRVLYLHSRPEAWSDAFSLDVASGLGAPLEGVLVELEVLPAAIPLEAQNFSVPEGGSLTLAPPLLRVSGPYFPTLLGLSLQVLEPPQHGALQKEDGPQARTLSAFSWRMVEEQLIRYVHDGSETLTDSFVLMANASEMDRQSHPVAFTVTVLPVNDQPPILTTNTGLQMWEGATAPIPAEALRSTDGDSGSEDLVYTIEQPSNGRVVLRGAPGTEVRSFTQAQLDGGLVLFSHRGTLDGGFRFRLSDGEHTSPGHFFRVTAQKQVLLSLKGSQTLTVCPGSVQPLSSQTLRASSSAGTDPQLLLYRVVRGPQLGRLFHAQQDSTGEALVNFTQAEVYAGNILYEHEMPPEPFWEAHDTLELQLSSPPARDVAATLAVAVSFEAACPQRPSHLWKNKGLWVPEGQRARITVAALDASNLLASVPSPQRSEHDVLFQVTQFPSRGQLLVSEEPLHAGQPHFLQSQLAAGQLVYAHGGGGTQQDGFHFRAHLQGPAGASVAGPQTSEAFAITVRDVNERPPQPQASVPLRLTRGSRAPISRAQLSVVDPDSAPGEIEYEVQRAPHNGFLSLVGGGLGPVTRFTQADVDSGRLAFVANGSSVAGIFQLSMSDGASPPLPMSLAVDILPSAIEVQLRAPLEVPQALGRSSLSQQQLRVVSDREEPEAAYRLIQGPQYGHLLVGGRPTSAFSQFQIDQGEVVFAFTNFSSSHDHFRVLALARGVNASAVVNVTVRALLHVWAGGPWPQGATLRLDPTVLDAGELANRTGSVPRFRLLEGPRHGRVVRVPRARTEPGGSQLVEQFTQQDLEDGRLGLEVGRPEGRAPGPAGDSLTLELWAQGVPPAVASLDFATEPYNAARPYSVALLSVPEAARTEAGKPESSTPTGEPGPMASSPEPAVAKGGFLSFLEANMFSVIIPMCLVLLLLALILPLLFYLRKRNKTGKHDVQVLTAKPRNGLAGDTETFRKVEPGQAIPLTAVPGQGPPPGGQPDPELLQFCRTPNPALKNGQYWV
T4 sequence (P08637 17-208 F176V limits assumed): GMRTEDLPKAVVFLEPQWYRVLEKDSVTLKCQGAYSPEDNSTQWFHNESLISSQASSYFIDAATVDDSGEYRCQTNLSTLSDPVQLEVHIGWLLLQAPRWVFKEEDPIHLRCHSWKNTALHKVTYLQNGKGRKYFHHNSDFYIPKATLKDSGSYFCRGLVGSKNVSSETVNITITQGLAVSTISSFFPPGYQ

Binder | binding result [1] | binding result [2] | Kd [3] [nM] | EC50 [4] [nM] | EC50 [5] [nM] | EC50 of T cell-mediated killing (LDH release), LS-174T cells, human PBMCs E:T 10:1, 28 h [6] [nM] | EC50 of T cell-mediated killing (LDH release), MKN-45 cells, human PBMCs E:T 10:1, 28 h [6] [nM]
B1 | binds | binds | – | – | – | – | –
B2 | binds | binds | 2130 | – | – | – | –
B3 | – | – | – | 6.7 | 3.9 | 0.673 | 0.115
B4 | – | – | – | 9.3 | 4.6 | 0.955 | 0.243

— patent publication US20140242080A1 (Hoffmann-La Roche, published 2014)
